Experimental findings from article PMC4514735, “The FKBP52 Cochaperone Acts in Synergy with β-Catenin to Potentiate Androgen Receptor Signaling” (PLoS ONE, 2015) are described below.

The target of the assay is T1, Gal4 DNA binding domain (DBD)-AR LBD chimeric protein (UniProt P10275 669-920).
T1 construct: also called Gal4-AR LBD; Gal4-DBD fused to the AR LBD; source: in cells (two-hybrid) and in lysate (co-IP)
T1 sequence (looked up): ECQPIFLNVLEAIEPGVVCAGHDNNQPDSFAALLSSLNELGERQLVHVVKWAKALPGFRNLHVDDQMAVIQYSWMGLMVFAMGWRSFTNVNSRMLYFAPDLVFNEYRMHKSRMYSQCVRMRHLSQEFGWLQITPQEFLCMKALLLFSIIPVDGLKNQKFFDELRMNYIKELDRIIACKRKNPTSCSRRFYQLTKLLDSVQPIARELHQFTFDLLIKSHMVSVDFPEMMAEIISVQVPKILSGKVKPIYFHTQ
As to the kind of experiment: two-hybrid; mammalian two-hybrid in 293T cells, Gal4-tk-luc reporter, 10 nM DHT, with FKBP52 overexpressed. Conditions: partners not purified.

B1: VP16-AD fused to the full-length β-catenin (natural protein, UniProt P35222 1-781, looked up)
chain: MATQADLMELDMAMEPDRKAAVSHWQQQSYLDSGIHSGATTTAPSLSGKGNPEEEDVDTSQVLYEWEQGFSQSFTQEQVADIDGQYAMTRAQRVRAAMFPETLDEGMQIPSTQFDAAHPTNVQRLAEPSQMLKHAVVNLINYQDDAELATRAIPELTKLLNDEDQVVVNKAAVMVHQLSKKEASRHAIMRSPQMVSAIVRTMQNTNDVETARCTAGTLHNLSHHREGLLAIFKSGGIPALVKMLGSPVDSVLFYAITTLHNLLLHQEGAKMAVRLAGGLQKMVALLNKTNVKFLAITTDCLQILAYGNQESKLIILASGGPQALVNIMRTYTYEKLLWTTSRVLKVLSVCSSNKPAIVEAGGMQALGLHLTDPSQRLVQNCLWTLRNLSDAATKQEGMEGLLGTLVQLLGSDDINVVTCAAGILSNLTCNNYKNKMMVCQVGGIEALVRTVLRAGDREDITEPAICALRHLTSRHQEAEMAQNAVRLHYGLPVVVKLLHPPSHWPLIKATVGLIRNLALCPANHAPLREQGAIPRLVQLLVRAHQDTQRRTSMGGTQQQFVEGVRMEEIVEGCTGALHILARDVHNRIVIRGLNTIPLFVQLLYSPIENIQRVAAGVLCELAQDKEAAEAIEAEGATAPLTELLHSRNEGVATYAAAVLFRMSEDKPQDYKKRLSVELTSSLFRTEPMAWNETADLGLDIGAQGEPLGYRQDDPSYRSFHSGGYGQDALGMDPMMEHEMGGHHPGADYPVDGLPDLGHAQDLMDGLPPGDSNQLAWFDTDL
notes: β-catenin, full length; NheI-XbaI fragment of pCI-neo-β-catenin inserted into the pACT vector (Promega); also called Vp16-β-catenin; VP16-β-catenin
For B1, the “fold enhancement of the two-hybrid signal by overexpressed FKBP52” value amounted to 4.5 fold.
